Laboratory results as given in patent US20210221867A1 (Novo Nordisk, published 2021).
Positions of bridges follow the written chain, without caps; N, C: chain ends. Non-standard residues stand in square brackets, D forms with d. dPhe(4-Cl) = N[C@H](Cc1ccc(Cl)cc1)C(=O)O; dPhe(4-Me) = Cc1ccc(C[C@@H](N)C(=O)O)cc1; dPhe(4-F) = N[C@H](Cc1ccc(F)cc1)C(=O)O; Nle = CCCC[C@H](N)C(=O)O; Thz = O=C(O)[C@@H]1CSCN1; Aib = CC(C)(N)C(=O)O

B1: Ac-c[Cys-Pro-His-D-MePhe-His-Trp-Cys]-Pro-Pro-D-Arg-Glu-Nle-D-Arg-D-Arg-NH2 (peptide)
peptide: Ac-CPH[dPhe(4-Me)]HWCPP[dR]E[Nle][dR][dR]-NH2
modifications: disulfide 1-7
SMILES: CCCC[C@H](NC(=O)[C@H](CCC(=O)O)NC(=O)[C@@H](CCCNC(=N)N)NC(=O)[C@@H]1CCCN1C(=O)[C@@H]1CCCN1C(=O)[C@@H]1CSSC[C@H](NC(C)=O)C(=O)N2CCC[C@H]2C(=O)N[C@@H](Cc2c[nH]cn2)C(=O)N[C@H](Cc2ccc(C)cc2)C(=O)N[C@@H](Cc2c[nH]cn2)C(=O)N[C@@H](Cc2c[nH]c3ccccc23)C(=O)N1)C(=O)N[C@H](CCCNC(=N)N)C(=O)N[C@H](CCCNC(=N)N)C(N)=O
notes: Synthetic cyclic peptide; also called Chem. 9
B2: Ac-c[Cys-THAZ-His-D-F-Phe-His-Trp-Cys]-Pro-Pro-D-Arg-Glu-Nle-Arg-Arg-NH2 (peptide)
peptide: Ac-C[Thz]H[dPhe(4-F)]HWCPP[dR]E[Nle]RR-NH2
modifications: disulfide 1-7
SMILES: CCCC[C@H](NC(=O)[C@H](CCC(=O)O)NC(=O)[C@@H](CCCNC(=N)N)NC(=O)[C@@H]1CCCN1C(=O)[C@@H]1CCCN1C(=O)[C@@H]1CSSC[C@H](NC(C)=O)C(=O)N2CSC[C@H]2C(=O)N[C@@H](Cc2c[nH]cn2)C(=O)N[C@H](Cc2ccc(F)cc2)C(=O)N[C@@H](Cc2c[nH]cn2)C(=O)N[C@@H](Cc2c[nH]c3ccccc23)C(=O)N1)C(=O)N[C@@H](CCCNC(=N)N)C(=O)N[C@@H](CCCNC(=N)N)C(N)=O
notes: Synthetic cyclic peptide; also called Chem. 17
B3: Ac-c[Cys-Aib-His-D-Phe-His-Trp-Cys]-Pro-Pro-D-Arg-Glu-Nle-D-Arg-D-Arg-NH2 (peptide)
peptide: Ac-C[Aib]H[dF]HWCPP[dR]E[Nle][dR][dR]-NH2
modifications: disulfide 1-7
SMILES: CCCC[C@H](NC(=O)[C@H](CCC(=O)O)NC(=O)[C@@H](CCCNC(=N)N)NC(=O)[C@@H]1CCCN1C(=O)[C@@H]1CCCN1C(=O)[C@@H]1CSSC[C@H](NC(C)=O)C(=O)NC(C)(C)C(=O)N[C@@H](Cc2c[nH]cn2)C(=O)N[C@H](Cc2ccccc2)C(=O)N[C@@H](Cc2c[nH]cn2)C(=O)N[C@@H](Cc2c[nH]c3ccccc23)C(=O)N1)C(=O)N[C@H](CCCNC(=N)N)C(=O)N[C@H](CCCNC(=N)N)C(N)=O
notes: Synthetic cyclic peptide; also called Chem. 13
B4: Ac-Arg-c[Cys-Pro-His-D-Phe-His-Trp-Cys]-Pro-Pro-D-Arg-Glu-Nle-NH2 (peptide)
peptide: Ac-RCPH[dF]HWCPP[dR]E[Nle]-NH2
modifications: disulfide 2-8
SMILES: CCCC[C@H](NC(=O)[C@H](CCC(=O)O)NC(=O)[C@@H](CCCNC(=N)N)NC(=O)[C@@H]1CCCN1C(=O)[C@@H]1CCCN1C(=O)[C@@H]1CSSC[C@H](NC(=O)[C@H](CCCNC(=N)N)NC(C)=O)C(=O)N2CCC[C@H]2C(=O)N[C@@H](Cc2c[nH]cn2)C(=O)N[C@H](Cc2ccccc2)C(=O)N[C@@H](Cc2c[nH]cn2)C(=O)N[C@@H](Cc2c[nH]c3ccccc23)C(=O)N1)C(N)=O
notes: Synthetic cyclic peptide; also called Chem. 1
B5: Ac-c[Cys-Pro-His-D-Phe-His-Trp-Cys]-Pro-Pro-D-Arg-Glu-Nle-Arg-Arg-NH2 (peptide)
peptide: Ac-CPH[dF]HWCPP[dR]E[Nle]RR-NH2
modifications: disulfide 1-7
SMILES: CCCC[C@H](NC(=O)[C@H](CCC(=O)O)NC(=O)[C@@H](CCCNC(=N)N)NC(=O)[C@@H]1CCCN1C(=O)[C@@H]1CCCN1C(=O)[C@@H]1CSSC[C@H](NC(C)=O)C(=O)N2CCC[C@H]2C(=O)N[C@@H](Cc2c[nH]cn2)C(=O)N[C@H](Cc2ccccc2)C(=O)N[C@@H](Cc2c[nH]cn2)C(=O)N[C@@H](Cc2c[nH]c3ccccc23)C(=O)N1)C(=O)N[C@@H](CCCNC(=N)N)C(=O)N[C@@H](CCCNC(=N)N)C(N)=O
notes: Synthetic cyclic peptide; also called Chem. 3
B6: Ac-D-Arg-c[Cys-Pro-His-D-Phe-His-Trp-Cys]-Pro-Pro-D-Arg-Glu-Nle-NH2 (peptide)
peptide: Ac-[dR]CPH[dF]HWCPP[dR]E[Nle]-NH2
modifications: disulfide 2-8
SMILES: CCCC[C@H](NC(=O)[C@H](CCC(=O)O)NC(=O)[C@@H](CCCNC(=N)N)NC(=O)[C@@H]1CCCN1C(=O)[C@@H]1CCCN1C(=O)[C@@H]1CSSC[C@H](NC(=O)[C@@H](CCCNC(=N)N)NC(C)=O)C(=O)N2CCC[C@H]2C(=O)N[C@@H](Cc2c[nH]cn2)C(=O)N[C@H](Cc2ccccc2)C(=O)N[C@@H](Cc2c[nH]cn2)C(=O)N[C@@H](Cc2c[nH]c3ccccc23)C(=O)N1)C(N)=O
notes: Synthetic cyclic peptide; also called Chem. 7
B7: Ac-Arg-c[Cys-Pro-His-D-Phe-His-Trp-Cys]-Pro-Pro-D-Arg-Glu-Nle-Lys-NH2 (peptide)
peptide: Ac-RCPH[dF]HWCPP[dR]E[Nle]K-NH2
modifications: disulfide 2-8
SMILES: CCCC[C@H](NC(=O)[C@H](CCC(=O)O)NC(=O)[C@@H](CCCNC(=N)N)NC(=O)[C@@H]1CCCN1C(=O)[C@@H]1CCCN1C(=O)[C@@H]1CSSC[C@H](NC(=O)[C@H](CCCNC(=N)N)NC(C)=O)C(=O)N2CCC[C@H]2C(=O)N[C@@H](Cc2c[nH]cn2)C(=O)N[C@H](Cc2ccccc2)C(=O)N[C@@H](Cc2c[nH]cn2)C(=O)N[C@@H](Cc2c[nH]c3ccccc23)C(=O)N1)C(=O)N[C@@H](CCCCN)C(N)=O
notes: Synthetic cyclic peptide; also called Chem. 2
B8: Ac-Arg-c[Cys-Pro-His-D-Phe-His-Trp-Cys]-Pro-Pro-D-Arg-Glu-Nle-Arg-NH2 (peptide)
peptide: Ac-RCPH[dF]HWCPP[dR]E[Nle]R-NH2
modifications: disulfide 2-8
SMILES: CCCC[C@H](NC(=O)[C@H](CCC(=O)O)NC(=O)[C@@H](CCCNC(=N)N)NC(=O)[C@@H]1CCCN1C(=O)[C@@H]1CCCN1C(=O)[C@@H]1CSSC[C@H](NC(=O)[C@H](CCCNC(=N)N)NC(C)=O)C(=O)N2CCC[C@H]2C(=O)N[C@@H](Cc2c[nH]cn2)C(=O)N[C@H](Cc2ccccc2)C(=O)N[C@@H](Cc2c[nH]cn2)C(=O)N[C@@H](Cc2c[nH]c3ccccc23)C(=O)N1)C(=O)N[C@@H](CCCNC(=N)N)C(N)=O
notes: Synthetic cyclic peptide; also called Chem. 8
B9: Ac-c[Cys-THAZ-His-D-Phe-His-Trp-Cys]-Pro-Pro-D-Arg-Glu-Nle-D-Arg-D-Arg-NH2 (peptide)
peptide: Ac-C[Thz]H[dF]HWCPP[dR]E[Nle][dR][dR]-NH2
modifications: disulfide 1-7
SMILES: CCCC[C@H](NC(=O)[C@H](CCC(=O)O)NC(=O)[C@@H](CCCNC(=N)N)NC(=O)[C@@H]1CCCN1C(=O)[C@@H]1CCCN1C(=O)[C@@H]1CSSC[C@H](NC(C)=O)C(=O)N2CSC[C@H]2C(=O)N[C@@H](Cc2c[nH]cn2)C(=O)N[C@H](Cc2ccccc2)C(=O)N[C@@H](Cc2c[nH]cn2)C(=O)N[C@@H](Cc2c[nH]c3ccccc23)C(=O)N1)C(=O)N[C@H](CCCNC(=N)N)C(=O)N[C@H](CCCNC(=N)N)C(N)=O
notes: Synthetic cyclic peptide; also called Chem. 12
B10: Ac-c[Cys-Pro-His-D-Cl-Phe-His-Trp-Cys]-Pro-Pro-D-Arg-Glu-Nle-D-Arg-D-Arg-NH2 (peptide)
peptide: Ac-CPH[dPhe(4-Cl)]HWCPP[dR]E[Nle][dR][dR]-NH2
modifications: disulfide 1-7
SMILES: CCCC[C@H](NC(=O)[C@H](CCC(=O)O)NC(=O)[C@@H](CCCNC(=N)N)NC(=O)[C@@H]1CCCN1C(=O)[C@@H]1CCCN1C(=O)[C@@H]1CSSC[C@H](NC(C)=O)C(=O)N2CCC[C@H]2C(=O)N[C@@H](Cc2c[nH]cn2)C(=O)N[C@H](Cc2ccc(Cl)cc2)C(=O)N[C@@H](Cc2c[nH]cn2)C(=O)N[C@@H](Cc2c[nH]c3ccccc23)C(=O)N1)C(=O)N[C@H](CCCNC(=N)N)C(=O)N[C@H](CCCNC(=N)N)C(N)=O
notes: Synthetic cyclic peptide; also called Chem. 10
B11: Ac-c[Cys-Pro-His-D-Phe-His-Trp-Cys]-Pro-Pro-D-Arg-Glu-Nle-D-Arg-D-Arg-NH2 (peptide)
peptide: Ac-CPH[dF]HWCPP[dR]E[Nle][dR][dR]-NH2
modifications: disulfide 1-7
SMILES: CCCC[C@H](NC(=O)[C@H](CCC(=O)O)NC(=O)[C@@H](CCCNC(=N)N)NC(=O)[C@@H]1CCCN1C(=O)[C@@H]1CCCN1C(=O)[C@@H]1CSSC[C@H](NC(C)=O)C(=O)N2CCC[C@H]2C(=O)N[C@@H](Cc2c[nH]cn2)C(=O)N[C@H](Cc2ccccc2)C(=O)N[C@@H](Cc2c[nH]cn2)C(=O)N[C@@H](Cc2c[nH]c3ccccc23)C(=O)N1)C(=O)N[C@H](CCCNC(=N)N)C(=O)N[C@H](CCCNC(=N)N)C(N)=O
notes: Synthetic cyclic peptide; also called Chem. 4
B12: Ac-c[Cys-Pro-His-D-Phe-His-Trp-Cys]-Pro-Pro-D-Arg-Glu-Nle-D-Arg-Arg-NH2 (peptide)
peptide: Ac-CPH[dF]HWCPP[dR]E[Nle][dR]R-NH2
modifications: disulfide 1-7
SMILES: CCCC[C@H](NC(=O)[C@H](CCC(=O)O)NC(=O)[C@@H](CCCNC(=N)N)NC(=O)[C@@H]1CCCN1C(=O)[C@@H]1CCCN1C(=O)[C@@H]1CSSC[C@H](NC(C)=O)C(=O)N2CCC[C@H]2C(=O)N[C@@H](Cc2c[nH]cn2)C(=O)N[C@H](Cc2ccccc2)C(=O)N[C@@H](Cc2c[nH]cn2)C(=O)N[C@@H](Cc2c[nH]c3ccccc23)C(=O)N1)C(=O)N[C@H](CCCNC(=N)N)C(=O)N[C@@H](CCCNC(=N)N)C(N)=O
notes: Synthetic cyclic peptide; also called Chem. 14

What was measured:
human MC1 receptor [1] = target: T1, human MC1 receptor (human, UniProt Q01726 1-317); assay: cell-based or functional assay
T1 sequence (Q01726 whole entry): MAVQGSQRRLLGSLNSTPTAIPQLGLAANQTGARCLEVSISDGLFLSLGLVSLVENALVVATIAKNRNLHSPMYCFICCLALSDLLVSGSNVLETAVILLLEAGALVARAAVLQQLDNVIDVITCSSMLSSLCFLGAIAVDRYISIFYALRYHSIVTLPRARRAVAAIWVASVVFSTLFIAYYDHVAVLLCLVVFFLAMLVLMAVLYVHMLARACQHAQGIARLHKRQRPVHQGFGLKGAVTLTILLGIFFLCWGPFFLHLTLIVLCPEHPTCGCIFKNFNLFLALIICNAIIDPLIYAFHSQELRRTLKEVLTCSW

human MC4 receptor [2] = target: T2, human MC4 receptor (human, UniProt P32245 1-332); assay: cell-based or functional assay
T2 sequence (P32245 whole entry): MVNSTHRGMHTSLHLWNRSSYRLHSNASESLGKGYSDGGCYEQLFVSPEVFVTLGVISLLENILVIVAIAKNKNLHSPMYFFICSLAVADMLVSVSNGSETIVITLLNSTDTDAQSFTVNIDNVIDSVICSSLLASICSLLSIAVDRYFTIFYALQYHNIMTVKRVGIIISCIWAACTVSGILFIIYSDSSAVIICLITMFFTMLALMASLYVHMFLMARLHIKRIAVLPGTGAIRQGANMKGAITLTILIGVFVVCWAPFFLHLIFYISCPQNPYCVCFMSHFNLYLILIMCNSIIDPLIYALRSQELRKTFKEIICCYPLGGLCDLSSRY

human MC1 receptor [3] = target: T1, human MC1 receptor; assay: SPA competition binding, displacement of 125I-NDP-α-MSH, BHK membranes with human MC1R
Description: (§1) The SPA Binding assay was performed in 96-well white opaque plates. Each well contained: 0.5 mg PVT-WGA SPA beads, MC1 receptor expressing membrane diluted to give approximately 10% specific tracer binding, 50.000 dpm ¹²⁵I-NDP-α-MSH and relevant dilutions of test compound. The final volume in each well was 200 μl. […] Plates were incubated overnight (22-24 hours) at room temperature before counting for 2 minutes per well, using a TopCount NXT scintillation counter. Displacement of radio ligand is measured as reduction in light emission from SPA beads, and IC₅₀ values are calculated by nonlinear regression analysis of sigmoidal dose-response curves in GraphPad Prism (GraphPad Software, La Jolla, Calif., USA).

human MC4 receptor [4] = target: T2, human MC4 receptor; assay: SPA competition binding, displacement of 125I-NDP-α-MSH, BHK membranes with human MC4R
Description: as §1, with “MC4” for “MC1”

| Binder | MC1R cAMP EC50 (human MC1 receptor [1]) [nM] | MC4R cAMP EC50 (human MC4 receptor [2]) [nM] | IC50 (human MC1 receptor [3]) [nM] | IC50 (human MC4 receptor [4]) [nM] |
| --- | --- | --- | --- | --- |
| B1 | 601 | 2.15 | 290 | 0.88 |
| B2 | 888 | 0.25 | 262 | 0.46 |
| B3 | 456 | 0.33 | 214 | 0.44 |
| B4 |  | 1.51 | 374 | 1.47 |
| B5 | 778 | 1.4 | 511 | 1.03 |
| B6 | 649 | 2.72 | 816 | 6.31 |
| B7 | 288 | 1.17 | 144 | 0.71 |
| B8 | 270 | 0.6 | 128 | 0.68 |
| B9 | 801 | 0.24 | 235 | 0.45 |
| B10 |  | 0.43 | 172 | 0.28 |
| B11 | 1070 | 0.53 | 394 | 0.58 |
| B12 | 1160 | 1.39 | 443 | 0.86 |
